# Measured values from patent US20220193191A1.
# Biological target: human interleukin-4 receptor alpha chain (IL-4Rα) (human) (UniProt P24394)
# Experiment: cell-based or functional assay
binder,measurement,value
"Reference IL-4Rα antibody (Dupilumab) (antibody, INN chains, looked up, V domains shown) VH: EVQLVESGGGLEQPGGSLRLSCAGSGFTFRDYAMTWVRQAPGKGLEWVSSISGSGGNTYYADSVKGRFTISRDNSKNTLYLQMNSLRAEDTAVYYCAKDRLSITIRPRYYGLDVWGQGTTVTVSS VL: DIVMTQSPLSLPVTPGEPASISCRSSQSLLYSIGYNYLDWYLQKSGQSPQLLIYLGSNRASGVPDRFSGSGSGTDFTLKISRVEAEDVGFYYCMQALQTPYTFGQGTKLEIKR","Eotaxin-3 IC50 (nM): inhibition of IL-4 induced eotaxin-3 release, human whole blood in vitro, 8 ng/mL IL-4 for 24 hours, ELISA",1.5 nM
same,"MDC IC50 (nM): inhibition of IL-4 induced MDC release, human whole blood in vitro, 8 ng/mL IL-4 for 24 hours, ELISA",1.1 nM
same,"TARC IC50 (nM): inhibition of IL-4 induced TARC release, human whole blood in vitro, 8 ng/mL IL-4 for 24 hours, ELISA",0.8 nM
same,"pSTAT IC50 (nM): inhibition of IL-4 stimulated STAT6 phosphorylation in CD3+ T cells, human whole blood in vitro, 8 ng/mL IL-4 for 15 minutes, FACS",0.8 nM
